Results as given in patent publication US20240116985A1 (published 2024).
Starred links: 1 amine or outer side, 2 acyl side, 3 side chain; linkers in the order of their positions; H or OH if unused. Positions of bridges follow the written chain, without caps; N, C: chain ends. Non-standard residues stand in square brackets, D forms with d. Primed or numbered codes have the meaning given here. RdN(3) = (R)-4-(((allyloxy)carbonyl)(methyl)amino)-2-amino-2-methylbutanoic acid, stapling residue, C=CCOC(=O)N(C)CC[C@@](C)(N[*:1])C(=O)[*:2]; RdN″ = (R)-4-(((allyloxy)carbonyl)(methyl)amino)-2-amino-2-methylbutanoic acid (stapling residue), C=CCOC(=O)N(C)CC[C@@](C)(N[*:1])C(=O)[*:2]; RgN = (R)-3-(((allyloxy)carbonyl)(methyl)amino)-2-amino-2-methylpropanoic acid (stapling residue), C=CCOC(=O)N(C)C[C@@](C)(N[*:1])C(=O)[*:2]; PyrS(3) = (S)-1-((allyloxy)carbonyl)-3-aminopyrrolidine-3-carboxylic acid, stapling residue, C=CCOC(=O)N1CC[C@@](N[*:1])(C(=O)[*:2])C1; PyrS″ = (S)-1-((allyloxy)carbonyl)-3-aminopyrrolidine-3-carboxylic acid (stapling residue), C=CCOC(=O)N1CC[C@@](N[*:1])(C(=O)[*:2])C1; RdN = (R)-4-(((allyloxy)carbonyl)(methyl)amino)-2-amino-2-methylbutanoic acid, C=CCOC(=O)N(C)CC[C@@](C)(N[*:1])C(=O)[*:2]; Az = 1-((allyloxy)carbonyl)-3-aminoazetidine-3-carboxylic acid (stapling residue), C=CCOC(=O)N1CC(N[*:1])(C(=O)[*:2])C1; PyrS = (S)-1-((allyloxy)carbonyl)-3-aminopyrrolidine-3-carboxylic acid, C=CCOC(=O)N1CC[C@@](N[*:1])(C(=O)[*:2])C1; Az(3) = 1-((allyloxy)carbonyl)-3-aminoazetidine-3-carboxylic acid, C=CCOC(=O)N1CC(N[*:1])(C(=O)[*:2])C1; R7 = (R)-2-amino-2-methylnon-8-enoic acid, C=CCCCCC[C@@](C)(N[*:1])C(=O)[*:2]; Phe(3,4-F2) = N[C@@H](Cc1ccc(F)c(F)c1)C(=O)O; S7 = C[C@@](CCCCCC=[*:3])(N[*:1])C(=O)[*:2]; 2Pal = N[C@@H](Cc1ccccn1)C(=O)O; 3Pal = N[C@@H](Cc1cccnc1)C(=O)O; R8 = C=CCCCCCC[C@@](C)(N)C(=O)O; Cha = N[C@@H](CC1CCCCC1)C(=O)O; S8 = C=CCCCCCC[C@](C)(N)C(=O)O; hLeu = CC(C)CC[C@H](N)C(=O)O; Nle = CCCC[C@H](N)C(=O)O

T1: full-length beta-Catenin (Uniprot ID P35222) (Homo sapiens (Human), UniProt P35222 2-781)
T1 construct: Used full-length in both the FP and the AlphaScreen assay; also called B-Catenin; bCat
T1 sequence: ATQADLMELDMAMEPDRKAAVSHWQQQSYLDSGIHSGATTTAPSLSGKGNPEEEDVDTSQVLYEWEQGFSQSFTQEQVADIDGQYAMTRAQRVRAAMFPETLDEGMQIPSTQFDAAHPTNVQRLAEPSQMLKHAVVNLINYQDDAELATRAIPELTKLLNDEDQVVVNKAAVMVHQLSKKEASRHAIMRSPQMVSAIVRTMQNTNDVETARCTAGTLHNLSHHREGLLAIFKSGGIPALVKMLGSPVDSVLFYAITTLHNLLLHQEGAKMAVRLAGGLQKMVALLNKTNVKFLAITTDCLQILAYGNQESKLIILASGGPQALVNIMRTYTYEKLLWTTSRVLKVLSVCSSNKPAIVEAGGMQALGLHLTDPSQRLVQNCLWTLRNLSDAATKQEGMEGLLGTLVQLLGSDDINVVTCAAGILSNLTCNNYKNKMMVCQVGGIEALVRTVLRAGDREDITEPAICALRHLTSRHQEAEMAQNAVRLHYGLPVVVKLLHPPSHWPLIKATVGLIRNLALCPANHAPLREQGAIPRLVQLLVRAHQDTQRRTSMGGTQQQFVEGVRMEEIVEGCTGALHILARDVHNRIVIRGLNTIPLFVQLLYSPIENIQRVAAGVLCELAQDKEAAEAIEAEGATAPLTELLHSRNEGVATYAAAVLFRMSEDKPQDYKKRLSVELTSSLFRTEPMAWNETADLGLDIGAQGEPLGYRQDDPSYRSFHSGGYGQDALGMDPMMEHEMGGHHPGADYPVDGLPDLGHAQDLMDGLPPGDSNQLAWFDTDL

T2: full-length beta-Catenin (Uniprot ID P35222) (Homo sapiens (Human), UniProt P35222 2-781)
T2 construct: The assay text says 'full-length'; also called B-Catenin; bCat
T2 sequence: T1 sequence

B1: I-80 (peptide)
peptide: Ac-FDA[R8]DDAAFV[PyrS][2Pal]WQ-NH2
modifications: staple 4-11
notes: Stapled peptide; also called Ac-Phe-Asp-Ala-R8-Asp-Asp-Ala-Ala-Phe-Val-PyrS-2PyrA-Trp-Gln-NH2
B2: I-79 (peptide)
peptide: Ac-FDA[R8]DDAA[Phe(3,4-F2)]V[PyrS]FWQ-NH2
modifications: staple 4-11
notes: Stapled peptide; also called Ac-Phe-Asp-Ala-R8-Asp-Asp-Ala-Ala-34FF-Val-PyrS-Phe-Trp-Gln-NH2
B3: I-48 (peptide)
peptide: FDXADDAAFXAFWQ
modifications: not fully specified; N-terminal Ac; C-terminal NH2; R8 at 3 and S5 at 10, stapled
notes: Stapled peptide; also called Ac-Phe-Asp-R8-Ala-Asp-Asp-Ala-Ala-Phe-S5-Ala-Phe-Trp-Gln-NH2
B4: I-81 (peptide)
peptide: Ac-FDA[R8]DDAAFV[PyrS″][2Pal]WQ-NH2
modifications: staple 4-11
notes: as for B1
B5: I-76 (peptide)
peptide: Ac-FDA[R8]DDAA[Nle]V[PyrS(3)]FWQ-NH2
modifications: staple 4-11
notes: Stapled peptide; also called Ac-Phe-Asp-Ala-R8-Asp-Asp-Ala-Ala-nLeu-Val-PyrS-Phe-Trp-Gln-NH2
B6: I-50 (peptide)
peptide: Ac-FD[RdN(3)]ADDAAF[S7]AFWQ-NH2
modifications: staple 3-10; also: later-eluting HPLC isomer, E/Z not assigned
notes: Stapled peptide; also called Ac-Phe-Asp-RdN-Ala-Asp-Asp-Ala-Ala-Phe-S7-Ala-Phe-Trp-Gln-NH2
B7: I-72 (peptide)
peptide: Ac-ADI[RdN]D[Cha]AAFQ[S7]FWH-NH2
modifications: staple 4-11; not fully specified; printed as Ac-Ala-Asp-Ile-RdN-Asp-Cha-Ala-Ala-Phe-Gln-S7-Phe-Trp-His-NH2
notes: Stapled peptide; also called Ac-Ala-Asp-Ile-RdN-Asp-Cha-Ala-Ala-Phe-Gln-S7-Phe-Trp-His-NH2
B8: I-71 (peptide)
peptide: Ac-ADI[RdN″]D[hLeu]AAFQ[S7]FWH-NH2
modifications: staple 4-11
notes: Stapled peptide; also called Ac-Ala-Asp-Ile-RdN-Asp-hLeu-Ala-Ala-Phe-Gln-S7-Phe-Trp-His-NH2
B9: I-74 (peptide)
peptide: Ac-FDA[R8]DDAA[Cha]V[PyrS″]FWQ-NH2
modifications: staple 4-11; not fully specified; printed as Ac-Phe-Asp-Ala-R8-Asp-Asp-Ala-Ala-Cha-Val-PyrS-Phe-Trp-Gln-NH2
notes: Stapled peptide; also called Ac-Phe-Asp-Ala-R8-Asp-Asp-Ala-Ala-Cha-Val-PyrS-Phe-Trp-Gln-NH2
B10: I-61 (peptide)
peptide: Ac-FDA[R8]DDAAFV[PyrS][Cha]WQ-NH2
modifications: staple 4-11
notes: Stapled peptide; also called Ac-Phe-Asp-Ala-R8-Asp-Asp-Ala-Ala-Phe-Val-PyrS-Cha-Trp-Gln-NH2
B11: I-83 (peptide)
peptide: Ac-FDA[R8]DDAAFV[PyrS][3Pal]WQ-NH2
modifications: staple 4-11
notes: Stapled peptide; also called Ac-Phe-Asp-Ala-R8-Asp-Asp-Ala-Ala-Phe-Val-PyrS-3PyrA-Trp-Gln-NH2
B12: I-39 (peptide)
peptide: Ac-FDA[R8]DDAAFV[Az(3)]FWQ-NH2
modifications: staple 4-11; not fully specified; printed as Ac-Phe-Asp-Ala-R8-Asp-Asp-Ala-Ala-Phe-Val-Az-Phe-Trp-Gln-NH2
notes: Stapled peptide composition
B13: I-41 (peptide)
peptide: FDAXDDAAFVXFWQ
modifications: not fully specified; Ac-Phe-Asp-Ala-RdN-Asp-Asp-Ala-Ala-Phe-Val-S4-Phe-Trp-Gln-NH2 as printed: N-terminal acetyl, C-terminal amide, RdN at 4 stapled to S4 at 11
notes: Stapled peptide composition
B14: I-40 (peptide)
peptide: Ac-FDA[R8]DDAAFV[Az]FWQ-NH2
modifications: staple 4-11; not fully specified; printed as Ac-Phe-Asp-Ala-R8-Asp-Asp-Ala-Ala-Phe-Val-Az-Phe-Trp-Gln-NH2
notes: Stapled peptide composition
B15: I-43 (peptide)
peptide: FDAXDDAAFVXFWQ
modifications: not fully specified; Ac-Phe-Asp-Ala-RgN-Asp-Asp-Ala-Ala-Phe-Val-S8-Phe-Trp-Gln-NH2 as printed: N-terminal acetyl, C-terminal amide, RgN at 4 stapled to S8 at 11
notes: Stapled peptide composition
B16: I-42 (peptide)
peptide: FDAXDDAAFVXFWQ
modifications: not fully specified; Ac-Phe-Asp-Ala-RdN-Asp-Asp-Ala-Ala-Phe-Val-S4-Phe-Trp-Gln-NH2 as printed: N-terminal acetyl, C-terminal amide, RdN at 4 stapled to S4 at 11
notes: Stapled peptide composition

Molecular target: T1, full-length beta-Catenin (Uniprot ID …)
Assay: AlphaScreen competition; full-length beta-catenin, biotin-TCF4(10-53) probe
Description: (§1) Equal volume of the titrated peptide was added to the plate and incubated for 15 minutes at 20° C. Then 4 uL of donor and 4 uL acceptor beads at 10 ug/mL were added to the plate, for a 16 uL reaction pool and protected from light for 60 minutes at 20° C. prior to read. Reads were performed on a CLARIOstar plate reader (BMG Labtech) in duplicate, and data were fitted to a 1:1 binding model with hill slope using an in-house script. All provided concentrations are final concentrations.

Row | Binder | EC50 [µM]
1 | B1 | ≥ 10
2 | B2 | 3.97
3 | B3 | ≥ 10
4 | B4 | 9.78
5 | B5 | ≥ 10
6 | B6 | ≥ 10
7 | B7 | ≥ 10
8 | B8 | ≥ 10
9 | B9 | ≥ 10
10 | B10 | 8.9
11 | B11 | ≥ 10

Molecular target: T2, full-length beta-Catenin (Uniprot ID …)
Assay: AlphaScreen competition vs biotin-TCF4(10-53) on full-length beta-catenin
Description: as §1

Row | Binder | EC50 [µM]
12 | Ac-FDA[RgN]DDAAFV[S7]FWQ-NH2 (staple 4-11, Stapled peptide composition) [I-45] | ≥ 10
13 | Ac-FDA[R7]DDAAFV[Az(3)]FWQ-NH2 (staple 4-11, Stapled peptide composition) [I-38] | ≥ 10
14 | B12 | ≥ 10
15 | B13 | ≥ 10
16 | B14 | ≥ 10
17 | B15 | ≥ 10
18 | Ac-FDA[RgN]DDAAFV[S8]FWQ-NH2 (staple 4-11, Stapled peptide composition) [I-44] | ≥ 10
19 | B16 | 9.34
